The nanobody polyreactivity screen of Harvey et al. (2022)

Experiment: yeast display, Sf9 membrane polyspecificity reagent, FACS + sequencing; frameworks hold sequencing errors
How it was run: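 A synthetic nanobody library was expressed on Saccharomyces cerevisiae BJ5465 by galactose induction for 36–48 hours. The library was stained for 1 hour at 4 °C with 10% biotinylated, detergent-solubilized Sf9 membrane reagent and enriched with streptavidin microbeads before FACS. Low and high (top ~1%) gates were set on anti-HA fluorescence for expression and streptavidin fluorescence for reagent binding, and each polyreactivity label reflects the gate of origin.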

QVQRVESGGGLVQAGGSHPLSCAASGITLRYYAMGWYRQAPGKERELVAAISGRGGGTYYADSVKGRFTISRDNAKNTVYLQMNSLKPEDTAVYYCNAVGQQQVEYEYWGQGTQVTVSS
polyreactivity (PSR sort gate): high polyreactivity

QVQLVESGGGLVQAGGSLRLSCAASGSTFFYNAMGWYRQAPGKERELVAAITVTGTSTYYADSVKGRFTISRDNAKNTVYLQMNSLKPEDTGVYYCNTSLKRRRLRFNYWGQGTQVTVSS
polyreactivity (PSR sort gate): low polyreactivity

QVQLVESGGGLVQAGGSLRLSCDASGSTFAPNTMGWYRQAPGKVREFVADISFSGGSTYYADSVKGRFSISRDNAKNTVYLQMTSRKPEDTAVYYCNAYYSYWFTQYDYWGQGTQVTVSS
polyreactivity (PSR sort gate): high polyreactivity

QVQLVESGGGLVQAGGSLRLSCAASGSTSSLYTMGWYRQAPGKERELVAAITRSGGGTYYADSVKGRFTSSRDNAKNTVYLQMNSLKPEDTAVYYCAAVQSEGRMGYWGQGTQVTVSS
polyreactivity (PSR sort gate): high polyreactivity

QVQLVESGGGLVQAGGSLRLSCAASGRTFTDNAMGWYRQAPGKERELVAAISRRGGSTYYADSVKGRFTISRDNAKNTVYLQMNSLKPEDTAVYYCARASRDIRPYDYWGQGTQVTVSS
polyreactivity (PSR sort gate): high polyreactivity

QVQLVESGGGEVQEGGILRLSCAASGSIFSRNSMGWYRQAPGKDRELVAAITWSGGSTYYADSVKGRFTISRDNAKYTVYLLMNSLKPEDTAVYYCNADFAGTPNQYDYWGQGTQVTVSA
polyreactivity (PSR sort gate): high polyreactivity

QVQLVESGGGVVQAGGSLRLSCASSGSIFGPYVMGWYRQAPGKERELVAAISKSGGSTYYADSVKGRFTISRDNAKNTVFLLMNSLKPEDTAVYYCATDYLGGGKRYYYWGQGTQVTVSS
polyreactivity (PSR sort gate): high polyreactivity

QVQLVESGGGLVQAGGSLRLSCAASGITFGRNTMGWSRQAPGKERELVAAIDSGGNTYADSVKGRFTISRDNAKNTVYLQMNSLKPEDTAVYYCAVDGGEFSSYGYWGQGTQVTVSS
polyreactivity (PSR sort gate): low polyreactivity

QVQLVESGGGLVQAGGSLRLSCAASGSIFDYYAMGWYRQAPGKERELVASITWSGGRTSYADSVKGRFTISRDNAKNTVYLQMNSLKPEDSAVYYCAAKLWSYAYQHKRVWYYYWGQGTQVTVSS
polyreactivity (PSR sort gate): high polyreactivity

QVQLVESGGGLVQAGGSLRLSCAASGRIFYYYAMGWYRQAPRKERELVAAISWSDDSTYYADSVKGRFTISRDNAKNTVYLQMNSLKPEDTAVYYCAADSIHYQFDYWGQGTQVTVSS
polyreactivity (PSR sort gate): low polyreactivity

QVQLVESGGGLVQAGGSLSLSCAASGSTFKRYAMGWYRQAPGKERDLVASISSGGSTNYADSVKGRFTISRDNAKNTVNLQMNSLKPEETAVYYCAVSYRSFRYYWERYYSWGQGTQVTVSS
polyreactivity (PSR sort gate): high polyreactivity

QVQRVESGGGLVQAGGSLRLSCAASGSTIAKNAMGWYRQAPGKERELVAAISRGGNTYYADSVKGRFTISRDNAKNTVYLQMNSLKPEDTAVYYCAARYLYRSLKMDYWGQGTQVTVSS
polyreactivity (PSR sort gate): high polyreactivity

QVQLVESGGGLVQAGGSLRLSCAASGRIFTYYTMGWYRQAPGKERELVASITGGGGRTYYADSVKGRFTISRDNAKNTVYLQMNSLKPEDTAVYYCNARYPYPYWYTSYDYWGQGTQVTVSS
polyreactivity (PSR sort gate): high polyreactivity

QVQLVESGGGLVQAGGSLRLSCAASGFIFPYYDMGWYRQAPGKERELVADIDSSGGTTYYADSVKGRFTISRDNAKNTVYLQMNSLKPEDTAVYYCAATYQAWTWYPYYVIYDYWGQGTQVTVSS
polyreactivity (PSR sort gate): high polyreactivity

QVQLVESGGGLVQAGGSLRLSCAASGSTFGPNAMGWYRKAPGKERELVAALSKRGGRTDYADSVKGRFTISRDNAKNTVYLQMNSLKPEDTAVYYCNARDGSYYQGDYWGQGNQVTVSS
polyreactivity (PSR sort gate): high polyreactivity

QVQLVESGGGLVQARCSLRLSCAASGSTFLRYAMGWYRQAPGKERELVATISSSDDGTYYADSVKGRFTISRDIAKNTVYLQMNSLKPEDTAVYYCAARSWYLYYYWGQGTQVTVSS
polyreactivity (PSR sort gate): low polyreactivity

QVQLVESGGGLVQAGGSLRLSCAASGTTFKTYCMGRYRQAPGKERELVAAISRRGGSTSYADSVKGRFTISRDNAKNTVYLQMNSLKPEDTAVYYCNVLGWWHVWGYDYWGQGTQVTVSS
polyreactivity (PSR sort gate): high polyreactivity

QGQRVESGGGLVQAGGSLRLSCAASGSIFHGYAMGWDRQAPGKERELVADITSGGGTYYADSVKGRFTISRDNAKTTVYLQMNSLKPEDTAVYYCATQKSRRYGYWVQGTQVTVSS
polyreactivity (PSR sort gate): low polyreactivity

QVQLVESGGGLVQAGGSLRLSCAASGSILARNAMGWYRQAPGKERELVAAISNSGSTNYADSVKGRFTISRDNAKNTVYLQMNSLKPEDPAGYYCAKDADHGWFEYDYWGQGTQVTVSS
polyreactivity (PSR sort gate): low polyreactivity

QVHLVESGGGLVQAGGSLRLSCAASGSTSAYYVMGWYRQAPGKERELVAAIDFSGDSTYYADSVKGRFTISRDNAKNTVYLQMNSLKPEDTAVYYCAAELFYYSSLVTYEYWGQGTQVTVSS
polyreactivity (PSR sort gate): high polyreactivity

QVQLVESGGGLVQAGGSLRLSCAASGSIFFPYLMGWYRQAPGKERELVAAITYRAGSTYYADSVKGRFTISRDNAKNTVYLQMNSLKPEDTAVYYCAAVVSRSGEFGYWGQGTQVTVSS
polyreactivity (PSR sort gate): low polyreactivity

QVQLVESGGGLVQAGGSLRISCAASGLTFADNAMGWYRQAPGKERELVAAISRSGSRTYYADSVKGRFTISRDNAKNTVYLQMNSLKPEDTAVYYCNAVWWYYRVFDYWGQCTQVTVSS
polyreactivity (PSR sort gate): high polyreactivity

KVQLVESGGGLVQAGGSLRLTCAASGRIFPYYAMGWYRQAPGKERELVASIRYSAGNTYYADSVKGRFTISRDNAKNTVYLQMNSLKPEDTAVYYCWYTQNTLGNYWGQGTQVTVSS
polyreactivity (PSR sort gate): low polyreactivity

QVQLVESGGCLVQAGGSIRLSFAASGSISIRNAMGWYRQAPGTERELVAAISRGGSTYYADSVKGRFTISRDNAKNTVYLQMNSLNPEDTAVYYFATDGGLYYRGREYAFKYFYWGQGTQLTVSS
polyreactivity (PSR sort gate): high polyreactivity

QVQLVESAGGLVQAGGSLRLSCAASGRTLTRYTMGWYRQAPGKERELVAAITSGGSTYYADSVKGRFTISRDNAKNTVYLQKNSLKPEDTAVYYCNARTPWWSFSITEYGYWGQGTLVTVSS
polyreactivity (PSR sort gate): high polyreactivity

QVQLVESGGGLVQAGGSLRLSCSASGFIFTLYAMGWYRQAHGKERELVASIRGSGVNTYYADSVKGRFTISRDNAKNTDYLQMNSLKPEDTAVYYCAARTYRRPYYSWGQGTQVTVSS
polyreactivity (PSR sort gate): high polyreactivity

QVQLVESGGGLVQAGGSLRLSCAASGRIFNPYAMGWYRQAPGKERELVAAISRGGRTYYADSVKGRFTISRDNAKNTVYLQMNSLKPEDTAVYYCNAGRGLREDDYWGQGTQVTVSS
polyreactivity (PSR sort gate): low polyreactivity

QVQLVESGGGLVQAGGSLRLSCAASGYTFRAYAMGWYRPAPGKERELVAAISRRGGSTYYADSVKGRFTISRDNAKNTVYLQMNSLKPEDTAVYYCAADFRSEHAEDYWGQGTQVTVSS
polyreactivity (PSR sort gate): high polyreactivity

QVQLVESGGGLVQAGGSLRLSCAASGRIFYQYAMGWYRQAPGKERELVASISRSGTRTYYADSVKGRFTISRDNAKNTVYLQMNSLKPEDTAVYYCAAGYNLYYGVIYGFDYWGQGTQVTVSS
polyreactivity (PSR sort gate): high polyreactivity

QVQLVESGGGLGQAGGRLRLSCAASGRTFGYNAMGWYRQAPGKERELVAAISSGGSTNYADSVKGRFTISRDNAKNTVYLQMNSLKPEDTAVYYCAARRWRYVGTRYDYWGQGTQVTVSS
polyreactivity (PSR sort gate): high polyreactivity

QVHLVESGGGLVQAGGSLRLSCAASGRTFYIYAMGWYRQAPGKERELVAGIRWSGDSTYYADSVKGRFTISRDNAKNTVYLQMNRLKPEDTAVYYCAADISYELLSYYWYYYWGQGSQVTVSS
polyreactivity (PSR sort gate): high polyreactivity

QVQLVESGGGFVQAGGSLRLSCAASGSTFGTYAMGWYRQAPGKERELVAAISWSGGSTYYADSVKGRFTISRDNAKNTVYLQMNSLKPEDTAVYYCNATSSTPPGMDSWGQGTQVTVSS
polyreactivity (PSR sort gate): low polyreactivity

QVQLVESGGGLLQAGGSLRLSCAASGFILNSYAMGWYRQAPGKERELVAAITRSGGNTFYADSVKGRFKISRDNAKNTVYLQMNSLQPEDTAVYYCYAYFTYWSQLYYWGQGTQVTVSS
polyreactivity (PSR sort gate): high polyreactivity

QVQLVESGGGLVQAGGSLRLSCAASGGTYHANAMGWYRQAPGKERELVAGITSGGSTYYADSVKGRFTISRDNAKNTVYLQMNSLKPEDTAVYYCNARYPLNIIRGFVWWTVGHDYWGQGTQVTVSS
polyreactivity (PSR sort gate): low polyreactivity

QVQLVESGGGLVQEGGSLRLSCAASGFTFVGYAMGWYRQAPGKERELLASIPWGGDRTYYADTVKGRFTISRDNAKNTDYLQMNSLKPEDTAVYYCNAQYEIWRVTFSPYDRWGYDYWGQGTQVTVSS
polyreactivity (PSR sort gate): low polyreactivity

QVQLVESGGGLVQAGGSLRLSCAASGSTFPYYAMGWYRQAPGKERELVAAITSSGGSTYYADSVKGRFTISRDNAKNTVYLQMNSLKPEDTAVYYCAKGYGPYRQMNYWGQGTQVTVSS
polyreactivity (PSR sort gate): low polyreactivity

QVQLVESGGGLVQTGGSLRLSCAASGSTFYYYAMGWYRQAPGKERELVAGISWGGGSTYYADSVKGRFTISRDNAKNTVYLQMNSLKPEDTAVYYCNALNPNSYDYWGQGTLVTVSS
polyreactivity (PSR sort gate): low polyreactivity

QVQLVESGGGIVQAGGSLRLSCAASGRIIYNYGLGWYRQAPGKERELVARITTGGRTNYADSVKGRFTISRDNAKNTVYVQMNSLKPEDTAVYFCNAVGYHSRWYYYNYDYWGQGTQVTVSS
polyreactivity (PSR sort gate): low polyreactivity

QVQLVESGGGLVQAGGSLRLSCAASGSTFDQYALGRYRQAPGKERELVADITSSDGSTYYADSVKGRFTISRDIAKNTVYLQMNSLKPEDTAVYYCNADYRYIWTYWGWSIYDYWGQGTQVTVSS
polyreactivity (PSR sort gate): high polyreactivity

QVQLVESGAGLVQAGGSLRLSCAPSGSIFAAYAMGWYRQAPGKESELVAAIDRGGSTDYADSVKGRFTISRDNAKNTVYLQMNTLKPEDTAVYYCAKGYDYYVRRYYYWGQGTQVTVSS
polyreactivity (PSR sort gate): high polyreactivity

QVQLVVSGGGLVQAGGSLRLSCAASGNTFTKYAMGWYRQAPGKERELVAGITRGGSTNYADSVKGRFTISRDNAKNTVYLQMNSLIPEDTAVYYCNARPVYGSRFYSAVRMEYWGQATQVTVSS
polyreactivity (PSR sort gate): low polyreactivity

QVQLVESGGGLVQAGGSLRLSCAASGSIFKYYAMGWYIQAPGKERELVAAITYSGGSTYYADSVKGRFTISRDNAKNTVYLQMNSLKPEDTAVYYCNKVYKSYYWGGYEWGQATQVTVSS
polyreactivity (PSR sort gate): high polyreactivity

QVQLEESGGGLVQAGGSLRLTCAASGRILGYSAMGWYRQAPGKERELVAAISSGDSTNSADSVKGRFTISRDNAKITVYLQMNSLKPEDTAVYYCAAKGCIWNPYNYWGQGTQVTVSS
polyreactivity (PSR sort gate): low polyreactivity
